# The supplement of paper PMC12764529
# ± gives the half width of the 95% confidence interval.
# Tests used:
# [1] = folding stability dG unfold (combined trypsin and chymotrypsin); higher = more stable
# How it was run: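 Unfolding free energy was derived, per protease or combined, against a sequence-predicted unfolded-state K50 and a shared folded-state K50, starting from K50 inferred by Bayesian fitting of sequencing counts. Digestion with trypsin and chymotrypsin was carried out on designed mini-proteins under 80 residues without cysteine in a PA-tagged cDNA display construct. Only designs with AlphaFold2 dimer inter-PAE above 15 were kept.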
# [2] = folding stability dG unfold from trypsin proteolysis; higher = more stable
# Protocol: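 Folding stability of de novo designed mini-proteins (<80 aa, no Cys; designed by TrROS, TrMRF, ProteinMPNN and the joint model) was measured by cDNA display proteolysis with trypsin and chymotrypsin. Each protease was used at 11 concentrations in a threefold dilution series plus a no-protease condition. K50 was inferred by Bayesian fitting of sequencing counts, and dG unfold was derived against a sequence-predicted unfolded-state K50 (Tsuboyama et al. method). Sequences shown include variable-length N-terminal GS-type padding (SAGGSAGG...) inside a display construct carrying a PA tag. Rows were kept only if the AF2 dimer inter-PAE was >15, to exclude likely homo-oligomers.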
Sequence,folding stability dG unfold [1],folding stability dG unfold [2]
SAGGSAGGSAGGMIEIEVEKEEEVKELAEKFGFKVEAEKIEDGKIIAKIEFIPEEELKKSAGGSAGGSAGGS [r10_218_TrMRF],< -1 kcal/mol,-0.839 ± 0.24 kcal/mol
SAGGSAGGSAGGSALDPSAKVTVDRGDGKLVAVHVYPPGGKPVVILLPEEDAKKILEEVSAGGSAGGSAGGS [r4_16_TrMRF],-0.726 ± 0.44 kcal/mol,0.416 ± 0.031 kcal/mol
SAGGSAGGSAGAAPDETTVTTTVTPSPGTTTVTTTTYTYAPPTNTVTSTTTTTTIPAGTASAGGSAGGSAGG [r11_237_JUSTAS],0.127 ± 0.36 kcal/mol,0.659 ± 0.057 kcal/mol
SSPGLVEVTIPLKIVLEPLAPDGTPAPRPVATVPIKTAASSEDPSAIEQAKEDVIKELKPEFPDAKFVVESA [r9_1112_JUSTAS],< -1 kcal/mol,0.223 ± 0.065 kcal/mol
SAGGSAGGSAGGSIEIDVNPEAGQLKIEIEMPMPNPNGKPRGPMRMEQEFRIDDPEDIKSAGGSAGGSAGGS [r4_10_TrROS],< -1 kcal/mol,-0.641 ± 0.33 kcal/mol
SAGGSAGGSMERLENGIERIRLLVRFPERDEVRLIEIPLDNVTPEEIIERARELGAEEIELLESAGGSAGGS [r12_792_TrMRF],-0.545 ± 0.22 kcal/mol,0.11 ± 0.26 kcal/mol
SAGGSAEKLEEAIEEAKKVPEGAEVPILITVEKDGKPVVFEVKITRLPKEKKIKIDPLKAYLPEEFSAGGSA [r15_724_TrMRF],< -1 kcal/mol,-0.63 ± 0.39 kcal/mol
SAGGSAGGSAGPPVLVSINPDENATVEVRTRPDGKPVLLFTVPKTGEVLVVHPDGKIDNSSAGGSAGGSAGG [r11_601_TrMRF],-0.246 ± 0.35 kcal/mol,-0.0916 ± 0.17 kcal/mol
SAGGSAGGSKIEMMHAIRDNGKPFFVRITMDIQPQKDPNGEPKVNFEPKIEIYDPDGKPIFEISAGGSAGGS [r20_224_TrROS],0.392 ± 0.3 kcal/mol,0.641 ± 0.14 kcal/mol
SAGGSAGGMSPDVEVVTVERVITTTEPVSPSLSPEYLKAYPNATKTTTTVTVTVVPKERFEELTSAGGSAGG [r6_831_JUSTAS],< -1 kcal/mol,-1.44 ± 0.43 kcal/mol
SAGGSAGGSAMRVVEITVPPENPEELKREIAEAFPFEVEGEEVGDGSVTLRFILPEDVELGSAGGSAGGSAG [r3_457_TrMRF],-0.212 ± 0.13 kcal/mol,0.142 ± 0.097 kcal/mol
SAAVSFTPDGRPRRLEPVPPVPPVIEIPVPLNIPESDPAKKEALRKEIKEKIMKELGLPESVPVKVILLSAG [r14_453_JUSTAS],-0.158 ± 0.55 kcal/mol,0.199 ± 0.15 kcal/mol
SAGGSAGGSMPLRLAPVPIFLPEEEAVPVIEKLIEEGTEGGVGLIVPNVISPEEAGVHPDEPVSAGGSAGGS [r12_93_TrMRF],< -1 kcal/mol,-0.263 ± 0.08 kcal/mol
SAGGSAGGSAGGRMYPITFPGKTIEDIEEEIEELPPNYQINIDHDENGHMKVWIMPPDDFSAGGSAGGSAGG [r7_662_TrROS],< -1 kcal/mol,-0.422 ± 0.33 kcal/mol
SAGGKWYVMVKYEWRNPDNGKERNIQVPINREALQEGDLEEAVEEAKKFAREWGYPIKKVEINLMPPGSAGG [r13_954_TrROS],-0.232 ± 0.46 kcal/mol,-0.106 ± 0.17 kcal/mol
SAGMEIKIEKLEDGTYKITIKLYNKETNEEIEEIEIEVKKLKDGTYKVKIKIKNKETGKEFELEFEIKPSAG [r5_610_TrROS_Hall],> 6 kcal/mol,4.02 ± 0.34 kcal/mol
SAEIEELARKLAEELGAEVVEVKVEKLPNGTVKVTVVVRVNGELYKVTIEYDKETKEITIKIEKLPEEESAG [r14_784_TrROS_Hall],> 6 kcal/mol,3.81 ± 0.48 kcal/mol
SARPLTIMNPDGMMYRLDPDEGEIEFQNASDGEELKIKVKPKGNGVEIDIEFNGQPHEHKIPKGDWIMIPSA [r9_239_TrROS],0.157 ± 0.33 kcal/mol,0.662 ± 0.088 kcal/mol
SAGGSAGGSAVKVIPFPFNEALDLLNSGEPKEIHVVGPPGWYMTVQFNPPDNNIEIDDPVPPSAGGSAGGSA [r18_400_TrROS],0.194 ± 0.14 kcal/mol,0.732 ± 0.043 kcal/mol
SAGGSAGGSAGGSGSMVVEKVSPEPNVTKTIFFEPPEEGLVITVETLEGDTWSSQIILQSAGGSAGGSAGGS [r4_484_JUSTAS],-0.0129 ± 0.3 kcal/mol,0.657 ± 0.097 kcal/mol
SAGGSAGGSASSSVTITNRVTNPDTGLRYITIPSKGERVTLSPDESATIPVPPDAPVSVLGSSAGGSAGGSA [r18_329_JUSTAS],< -1 kcal/mol,-0.694 ± 0.24 kcal/mol
SAGGSAGGKKVFLPYSVISTVVPKHFPGDEKQALIDAEFLAKKAEEAGFKDVDFVISPVPPGAPSAGGSAGG [r6_545_TrMRF],-0.938 ± 0.27 kcal/mol,-0.467 ± 0.23 kcal/mol
SAGGSAGGSGKTIIIPLPNGNVIKVEVEEGSVKITYPKPKKELIKVENPKNALKNIKTYSYKGSAGGSAGGS [r12_32_TrMRF],< -1 kcal/mol,-0.176 ± 0.32 kcal/mol
SAGGSAGGSAMPIPALVLVERPLPDGETEEREIPVIVEPDKIDEIIEEAEKEGYKVKEVKASAGGSAGGSAG [r3_453_TrMRF],< -1 kcal/mol,-0.271 ± 0.06 kcal/mol

Sequence,folding stability dG unfold [1],folding stability dG unfold [2]
SAGGSAVPPSANVGPLKEKIEVTEDPEKGTKTYTRVLKDPATGKTIVETSVIPPDGSVTLVKTVLVSAGGSA [r15_146_JUSTAS],-0.307 ± 0.12 kcal/mol,-0.0156 ± 0.073 kcal/mol
SAGGSAGGSAGGMKPGEPVEIKIPVPGNGKKIPIEIPVGMPPEQARKFAKEIAEELEKNHSAGGSAGGSAGG [r7_957_TrROS],< -1 kcal/mol,-0.916 ± 0.2 kcal/mol
SAGGSAGGMITIPINTPGLSPAEAAAIKAQLEADGYPAAEVTITASPVPPVPPLGPENIYSNRGSAGGSAGG [r6_246_JUSTAS],< -1 kcal/mol,-0.0678 ± 0.047 kcal/mol
MAVTPEVLERMREEGVPEEVLAELGEVAVPSSDPRPEYIAELRALPGVSEVSPIPPTDPAALAALPERLLES [r1_248_JUSTAS],< -1 kcal/mol,-0.884 ± 0.54 kcal/mol
SAGGSAGGSAGGDSSAPKPVIVEEGSVILEVKRDPKHGVITILSRNPLGGELITYEIPRSAGGSAGGSAGGS [r10_427_JUSTAS],< -1 kcal/mol,-0.563 ± 0.28 kcal/mol
SDDLSTTVTVTTPGGPTLTLTFPSNASVSTSPIDENSIVITFPGYEAVVEIAPGGKPRLKEVSEKEPVDSSA [r9_773_JUSTAS],< -1 kcal/mol,-0.534 ± 0.2 kcal/mol
SAGGSAGGSSSPEEIKAEFKKKGYPKVEVKPVTPDTYLVTVTSPGTGKTTEYPITGSPSGKGLSAGGSAGGS [r12_170_JUSTAS],< -1 kcal/mol,-0.822 ± 0.35 kcal/mol
SAGGSAGGSAGGSGAEEAAKAVREAFPELGVPILVEVGYIPGTKELPVRVYIPSTRLELSAGGSAGGSAGGS [r4_312_TrMRF],< -1 kcal/mol,-0.294 ± 0.055 kcal/mol
SAGGSPKPIAEAILKELGYPDAIVKNIPIEKLENGIIIIPLEVIYPKNPKKGKPIKRIIKPNEKFASAGGSA [r2_137_TrMRF],< -1 kcal/mol,0.108 ± 0.095 kcal/mol
SAGMSSSEVIDIDAGPEKLKELVAKIKKESPNYTIVVTDPETGKPTLLDPSELKNIPGPVKLTITKYPQSAG [r5_437_JUSTAS],< -1 kcal/mol,-1.16 ± 0.66 kcal/mol
SAGGGGMPAVKEEVTPVPGGVLTTTTLPDGSVKVTVSPPSGPAVASATKPVPSGSSVTVTVTLRPAALSAGG [r13_584_JUSTAS],-0.335 ± 0.087 kcal/mol,0.367 ± 0.019 kcal/mol
SAGGSAGGSAGGKVLVRFPTGEVPEVVEIDVPFEAGDPEKAKEIADELLAKGAEEVVLEDSAGGSAGGSAGG [r11_196_TrMRF],-0.328 ± 0.35 kcal/mol,0.117 ± 0.056 kcal/mol
SAGGSANTIMIPFDDLTPDKILEAAEESPDPIMIHNPDNGRFLTVEVEDGGIDDVTWEPFDPEDFGSAGGSA [r15_751_TrROS],-0.135 ± 0.18 kcal/mol,0.499 ± 0.042 kcal/mol
SAGGSAGGSAGGSMIVDTKVPENSVAYTPDGKKIGPEEVKKALEEGLGYIGSTPVPPGLSAGGSAGGSAGGS [r4_47_JUSTAS],-0.835 ± 0.31 kcal/mol,0.127 ± 0.029 kcal/mol
SAGGSAGGSVKELAKKLNIKEVKVEPVDGEKVTLIKIKVKNKKTKKEYEKTILIKDKKTGKILSAGGSAGGS [r12_133_TrROS_Hall],-0.845 ± 0.38 kcal/mol,-0.405 ± 0.23 kcal/mol
SAGGSASVPPGKSVTLRISFPETGEERTITLDVKSSEELEAAAELEVPRPDGTPVPVTVSVVETVPSAGGSA [r15_797_JUSTAS],0.085 ± 0.24 kcal/mol,0.386 ± 0.094 kcal/mol
SAGGMVSPEVVKAALDDGNPLPLSEIVARIEAETGLPVEVETGDDSFRIVIRDPNRDVELSSETILLSAGGS [r8_105_JUSTAS],-0.399 ± 0.25 kcal/mol,0.292 ± 0.057 kcal/mol
SAGGSAGGSAGGMEKKLTLVTTRTPEGGSETILVDDSDPEKVRAELEEAGWTITETTSSSAGGSAGGSAGGS [r10_882_JUSTAS],< -1 kcal/mol,-0.793 ± 0.95 kcal/mol
SAGGSAGGSAMLKVTVKVPGTSKDYDFNVPESVGKEEAEKRLEEEYPGAEVTEIVEIPGEELSAGGSAGGSA [r18_242_JUSTAS],-0.469 ± 0.26 kcal/mol,0.545 ± 0.027 kcal/mol
SAGGSAGGSAGGMPVVVINTPSEEEAEKEKAKLEEDPEYKDGPINFIYIPPGTLPENVPLSAGGSAGGSAGG [r7_976_JUSTAS],< -1 kcal/mol,0.286 ± 0.072 kcal/mol
SAGGSSMLSPSESLPLPPDEDVEVSLPSPLSAKLTYDPATGTVSVTVTDPNNPGVPLSSTTRPLTASAGGSA [r2_266_JUSTAS],-0.203 ± 0.22 kcal/mol,0.662 ± 0.037 kcal/mol
SAGGSAGGSAGSKTITFIMVHPDDGYISDMEMRYTDNGIEMEMEWIPVPKEDAEELKDLISAGGSAGGSAGG [r11_47_TrROS],-0.044 ± 0.19 kcal/mol,0.225 ± 0.036 kcal/mol
SAGGTPIGDGQTGESSTFDEEVTDPVTGEKVKVKVTIPVTIDPETGKTVRTVTITNPLEGKTTTTLTLSAGG [r13_262_JUSTAS],< -1 kcal/mol,-0.379 ± 0.13 kcal/mol
